The text below walks through data of publication PMC12265263, “H2A.X N-terminal acetylation is a newly identified NAA40-mediated modification that is responsive to UV irradiation” (Epigenetics & Chromatin, 2025).

The target in one test is T1, human NAA40 WT (Homo sapiens, UniProt Q86UY6).
T1 construct: GST (N); made in house; host or cells: E. coli BL21 (DE3) codon plus RIL
Put plainly: Fluorescence-based in vitro Nt-acetylation assay, N-terminal 17-mer peptides, wild-type NAA40. It counts as biochemical. The conditions noted are these: for Nt-acetylation by recombinant wild type NAA40: 17-mer peptide 15 μM, 0.1 μM hNAA40, 15 μM Thioglo4, 25 mM HEPES pH 7.5, 150 mM NaCl, 0.01% Triton X100, 5 min, fluorescence ex 410/em 475 nm, ΔRFU/min, triplicate, repeated two times, Fig. 1E. As for the experimental part: (§1) hNAA40 (NCBI: NM_024771.4) WT and E139Q were cloned in pGEX-5 × 1 vector. The plasmids were transformed in BL21 (DE3) codon plus RIL pACYC E. coli cells, generously provided by Till Bartke (Institute of Functional Epigenetics, Helmholtz Munich). The transformed bacteria were grown in 40 mL Lysogeny Broth (LB) medium complemented with 100 μg/mL Ampicillin (Sigma A9518) and 25 μg/mL Chloramphenicol (Sigma C0378-5G) for 16 h at 37 °C. Final culture volume was adjusted to 400 mL with LB and the growth was resumed for 2 h. Protein expression was initiated by adding 0.1 mM isopropyl β-D-1-thiogalactopyranoside (IPTG) (Thermo Fisher Scientific 15529019) and incubating further for 4 h at 37 °C. Bacteria were pelleted and resuspended in ice cold PBS/1% Triton-X100 supplemented with protease inhibitors. Cells were lysed by small probe sonication (amplitude 30%, 3 × 45 s on ice). Lysate bacteria were pelleted, and the supernatant was incubated with Glutathione agarose beads (Cytiva 17075601) for 1 h. Then, washing steps were made with ice cold PBS/1% Triton-X100 and ice-cold PBS. The beads with the recombinant GST-NAA40 WT or E139Q were stored at − 20 °C in 80% PBS/20% glycerol. To obtain the GST tagged hNAA40, the buffer 50 mM Tris HCL pH 8, 20 mM reduced Glutathione-20% glycerol was used to elute the GST-NAA40. To obtain the untagged version of hNAA40, hNAA40 was enzymatically cut by Factor Xa (NEB P8010S) from the beads and was dialyzed in 50 mM Tris–HCL pH 7.5, 100 mM NaCl, 25% Glycerol. The recombinant proteins were confirmed by SDS-PAGE and the concentrations were determined using the BIO-RAD protein assay dye reagent (BIO-RAD 5000006) and Nanodrop 1000.
An adaptation of the previous described fluorescence assay was used to study the kinetics of hNAA40 with the histone substrates H2A.X, H2A, and H4. Specifically, the full-length histone proteins H2A.X (TEBU BIO 23615-0307), H2A, H4, and H2B, and 17-mer peptides corresponding to the N-terminal end of H4, H2A.X, H2A.J, SMARCD2 were tested with WT or E139Q hNAA40. The peptides used in this study were synthesized by BIOSYNTAN GmbH, with > 95% purity. Final substrate concentration was 15μM for the rate comparison between WT and E139Q hNAA40 (ΔRFU/min), and for the Km determination the concentration ranged from 0.1 μM to 25 μM (1:2 dilutions). The reactions were in triplicate, repeated two times and contained 15 μM Thioglo4 (Merck 595504), 10 μM Acetyl coenzyme A lithium salt (Santa Cruz sc-214465), 25 mM HEPES pH 7.5, 150 mM NaCl, 0.01% Triton X100), 0.1μM hNAA40 in a final volume of 40 μl. The reaction was initiated with the addition of the substrate. The fluorescence was monitored with Tecan Spark multimode reader with excitation 410 ± 20 nm and emission 475 ± 20 nm, and the duration of the reaction was 5 min. We generated the standard curve y = 685.2*X-92.53 using 0–10 μM 1:2 dilutions of Coenzyme A sodium salt hydrate (Merck C13144) and 25 mM HEPES pH 7.5, 150 mM NaCl, 0.01% Triton X100. GraphPad Prism 8 was used for the enzyme kinetics analyses.

A further test concerns human NAA40 E139Q. The test is described as follows: Fluorescence-based in vitro Nt-acetylation assay, N-terminal 17-mer peptides, catalytically inactive NAA40 E139Q. The class given is biochemical. The note with it: 17-mer peptide 15 μM, 10 μM acetyl-CoA, 0.1 μM hNAA40 E139Q, 25 mM HEPES pH 7.5, 5 min, triplicate, repeated two times, Fig. 1E. As for the experimental part: as §1
An adaptation of the previous described fluorescence assay was used to study the kinetics of hNAA40 with the histone substrates H2A.X, H2A, and H4. […] The fluorescence was monitored with Tecan Spark multimode reader with excitation 410 ± 20 nm and emission 475 ± 20 nm, and the duration of the reaction was 5 min. […]

On to “H2A.J peptide: 17 amino acid long peptide corresponding to the N-terminal end of H2A.J (MSGRGKQGGKVRAKAKS; UniProt Q9BTM1 1-17, looked up, fragment)”, for which the “Nt-acetylation by recombinant wild type NAA40” value with human NAA40 WT (10 μM acetyl-CoA) is reported as “Nt-acetylated by the wild-type”. Also, in the test on human NAA40 E139Q, the “Nt-acetylation by catalytically inactive NAA40 (E139Q)” value (from here on “Nt-acetylation … (E139Q)”) was “not the catalytically inactive human NAA40”.

Regarding “H2A.X peptide: 17 amino acid long peptide corresponding to the N-terminal end of H2A.X (SGRGKTGGKARAKAKSR; UniProt P16104 2-18, looked up, fragment)”, the “Nt-acetylation by recombinant wild type NAA40” value with human NAA40 WT (10 μM acetyl-CoA) is “Nt-acetylated by the wild-type”. In addition, the “Nt-acetylation … (E139Q)” value with human NAA40 E139Q is “not the catalytically inactive human NAA40”.

For the substance “SMARCD2 peptide: 17 amino acid long peptide corresponding to the N-terminal end of SMARCD2 (MSGRGAGGFPLPPLSPG; UniProt Q92925 1-17, looked up, fragment)”, the “Nt-acetylation by recombinant wild type NAA40” value in the test with human NAA40 WT (10 μM acetyl-CoA) is on record as “Nt-acetylated by the wild-type”. For the same substance, in the test with human NAA40 WT (17-mer peptides 0.1 μM to 25 μM (1:2 dilutions), 10 μM acetyl-CoA, 0.1 μM hNAA40, pH 7.5, Fig. 1F), the “Michaelis constant (Km), stated as affinity (inverse measure)” value is “significantly lower”. The “catalytic efficiency (kcat/Km)” value in the test with human NAA40 WT (17-mer peptides, Fig. 1H) is given as “significantly lower than histones”. For the same substance, in the test with human NAA40 E139Q, the “Nt-acetylation … (E139Q)” value was “not the catalytically inactive human NAA40”.
